Laboratory results published in the supplement of paper PMC7877785.
± gives the uncertainty stated by the source.

Assay: self-splicing fitness, log relative to wild type (ln ratio); higher = more splicing; Tetrahymena group I intron in knt gene, E. coli kanamycin selection, DiMSum; sequences stand for … in CUCUCU…GGAGGGAAAAGUUAUCAGGCAUGCACCUGGUAGCUAGUCUUUAAACCAAUAGAUUGCAUCGGUUUAAAAGGCAAGACCGUCAAAUUGCGGGAAAGGGGUCAACAGCCGUUCAGUACCAAGUCUCAGGGGAAACUUUGAGAUGGCCUUGCAAAGGGUAUGGUAAUAAGCUGACGGACAUGGUCCUAACCACGCAGCCAAGUCCUAAGUCAACAGAUCUUCUGUUGAUAUGGAUGCAGUUCACAGACUAAAUGUCGGUCGGGGAAGAUGUAUUCUUCUCAUAAGAUAUAGUCGGACCUCUCCUUAAUGGGAGCUAGCGGAUGAAGUGAUGCAACACUGGAGCCGCUGGGAACUAAUUUGUAUGCGAAAGUAUAUUGAUUAGUUUUGGAGUACUCGUGGUCG
Procedure, shortened: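 Fitness was computed with DiMSum as the error-weighted combination of replicate fold changes, kanamycin versus none, each normalised to wild type. The library randomised all eight intron nucleotides of the P1ex region, with the intron placed in the knt kanamycin-resistance gene on pET-22b(+) in E. coli BL21(DE3). Six replicate transformations were grown overnight at 37°C or 30°C on LB agar with or without 25 μg/mL kanamycin, plus 100 μg/mL carbenicillin, 50 μM IPTG and 0.2% rhamnose. Pooled colonies were amplicon-sequenced on an Illumina HiSeq 2500.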

Row | Sequence | self-splicing fitness (ln) (30 °C) | self-splicing fitness (ln) (37 °C)
1 | UUCCAGCAAUAUUACGUCUC | -3.17 ± 0.23 | -1.83 ± 0.2
2 | UUCCAGCAAUAUUACGUGAC | -2.56 ± 0.2 | -1.89 ± 0.21
3 | UUCCAGCAAUAUUACGUUCU | – | -3.34 ± 0.31
4 | UUCCAGCAAUAUUACGUUUC | -3.24 ± 0.23 | -2.17 ± 0.21
5 | UUCGAGCAAUAUUACGAAGG | -2.09 ± 0.23 | -1.62 ± 0.27
6 | UUCGAGCAAUAUUACGAAUA | – | -1.26 ± 0.3
7 | UUCGAGCAAUAUUACGACGU | -3.55 ± 0.24 | -1.85 ± 0.14
8 | UUCGAGCAAUAUUACGACUU | -3.32 ± 0.29 | -1.49 ± 0.29
9 | UUCGAGCAAUAUUACGAGAA | – | -0.969 ± 0.32
10 | UUCGAGCAAUAUUACGAGGC | -2.45 ± 0.29 | -2.98 ± 0.3
11 | UUCGAGCAAUAUUACGAUCU | -2.66 ± 0.19 | -1.83 ± 0.23
12 | UUCGAGCAAUAUUACGAUUA | -1.39 ± 0.26 | -0.875 ± 0.25
13 | UUCGAGCAAUAUUACGCACU | – | -1.76 ± 0.38
14 | UUCGAGCAAUAUUACGCAUA | -3.18 ± 0.42 | -1.39 ± 0.26
15 | UUCGAGCAAUAUUACGCGGG | -3.26 ± 0.43 | -2.07 ± 0.32
16 | UUCGAGCAAUAUUACGCUUU | -3.89 ± 0.26 | -2.56 ± 0.21
17 | UUCGAGCAAUAUUACGGUGA | -1.33 ± 0.1 | -0.708 ± 0.11
18 | UUCGAGCAAUAUUACGGUGC | -3.24 ± 0.31 | -2.29 ± 0.29
19 | UUCGAGCAAUAUUACGUAUU | – | -2.79 ± 0.43
20 | UUCGAGCAAUAUUACGUCCG | -3.05 ± 0.24 | -1.24 ± 0.28
21 | UUCGAGCAAUAUUACGUCGA | – | -1.49 ± 0.19
22 | UUCGAGCAAUAUUACGUGAU | -1.8 ± 0.2 | -1.35 ± 0.21
23 | UUCGAGCAAUAUUACGUGCU | -2.02 ± 0.18 | –
24 | UUCGAGCAAUAUUACGUGUC | -3.11 ± 0.23 | -2.77 ± 0.34
25 | UUCGAGCAAUAUUACGUUAA | -2.16 ± 0.31 | -1.82 ± 0.21
26 | UUCUAGCAAUAUUACGAAAU | -2.85 ± 0.28 | -1.75 ± 0.32
27 | UUCUAGCAAUAUUACGACAC | -2.05 ± 0.27 | -1.71 ± 0.28

Row | Sequence | self-splicing fitness (ln) (30 °C) | self-splicing fitness (ln) (37 °C)
28 | UUCUAGCAAUAUUACGAGAG | -2.3 ± 0.22 | -2.4 ± 0.29
29 | UUCUAGCAAUAUUACGAGGU | -3.27 ± 0.31 | -1.53 ± 0.2
30 | UUCUAGCAAUAUUACGAUCC | – | -2.65 ± 0.38
31 | UUCUAGCAAUAUUACGCAAA | -0.225 ± 0.3 | -1.23 ± 0.27
32 | UUCUAGCAAUAUUACGCACG | -1.26 ± 0.26 | -0.399 ± 0.3
33 | UUCUAGCAAUAUUACGCCAC | – | -2.02 ± 0.46
34 | UUCUAGCAAUAUUACGCCAU | -2.66 ± 0.32 | –
35 | UUCUAGCAAUAUUACGCCCA | -1.55 ± 0.16 | -1.37 ± 0.14
36 | UUCUAGCAAUAUUACGCCCU | -2.51 ± 0.27 | -0.693 ± 0.19
37 | UUCUAGCAAUAUUACGCGGA | -3.93 ± 0.3 | -3.75 ± 0.33
38 | UUCUAGCAAUAUUACGGGCU | -3.73 ± 0.36 | -3.76 ± 0.36
39 | UUCUAGCAAUAUUACGGGGG | -3.75 ± 0.37 | -2.09 ± 0.22
40 | UUCUAGCAAUAUUACGGGGU | -3.67 ± 0.33 | -1.92 ± 0.24
41 | UUCUAGCAAUAUUACGGUAA | -1.17 ± 0.13 | -0.408 ± 0.085
42 | UUCUAGCAAUAUUACGGUAU | – | -0.561 ± 0.24
43 | UUCUAGCAAUAUUACGGUCA | -0.883 ± 0.15 | -0.729 ± 0.11
44 | UUCUAGCAAUAUUACGUAAG | -2.51 ± 0.15 | -0.938 ± 0.15
45 | UUCUAGCAAUAUUACGUAGC | – | -2.19 ± 0.31
46 | UUCUAGCAAUAUUACGUCAA | -1.21 ± 0.13 | -1.43 ± 0.16
47 | UUCUAGCAAUAUUACGUGCA | -1.23 ± 0.13 | -1.59 ± 0.16
48 | UUCUAGCAAUAUUACGUGGG | -3.08 ± 0.16 | -2.39 ± 0.15
49 | UUCUAGCAAUAUUACGUUUU | -3.83 ± 0.23 | -2.92 ± 0.18
50 | UUGAAGCAAUAUUACGAAAG | -1.47 ± 0.082 | -0.794 ± 0.1
51 | UUGAAGCAAUAUUACGAACC | -1.68 ± 0.24 | -1.77 ± 0.44
52 | UUGAAGCAAUAUUACGAACG | 0.338 ± 0.093 | 0.443 ± 0.12
53 | UUGAAGCAAUAUUACGACAC | -1.07 ± 0.13 | -0.278 ± 0.2
54 | UUGAAGCAAUAUUACGACGU | 0.216 ± 0.046 | 0.439 ± 0.06

Row | Sequence | self-splicing fitness (ln) (30 °C) | self-splicing fitness (ln) (37 °C)
55 | UUGAAGCAAUAUUACGAGCC | -2.69 ± 0.48 | -1.56 ± 0.49
56 | UUGAAGCAAUAUUACGAGGA | -2.32 ± 0.16 | -0.555 ± 0.19
57 | UUGAAGCAAUAUUACGAGUU | -3.34 ± 0.17 | -1.58 ± 0.17
58 | UUGAAGCAAUAUUACGAUUC | -2.33 ± 0.18 | -2.3 ± 0.28
59 | UUGAAGCAAUAUUACGAUUU | -1.58 ± 0.17 | -0.941 ± 0.18
60 | UUGAAGCAAUAUUACGCCUA | 0.0255 ± 0.13 | 0.487 ± 0.22
61 | UUGAAGCAAUAUUACGCGUA | -0.169 ± 0.069 | -0.247 ± 0.098
62 | UUGAAGCAAUAUUACGCUAA | -0.361 ± 0.085 | -0.109 ± 0.097
63 | UUGAAGCAAUAUUACGCUCG | 0.0719 ± 0.11 | 0.419 ± 0.14
64 | UUGAAGCAAUAUUACGCUUC | -2.86 ± 0.49 | -2.06 ± 0.39
65 | UUGAAGCAAUAUUACGGACC | -1.12 ± 0.14 | -0.125 ± 0.2
66 | UUGAAGCAAUAUUACGGAGA | -0.684 ± 0.11 | -0.479 ± 0.15
67 | UUGAAGCAAUAUUACGGCCG | 0.53 ± 0.14 | 0.318 ± 0.22
68 | UUGAAGCAAUAUUACGGCGG | 0.15 ± 0.11 | 0.55 ± 0.13
69 | UUGAAGCAAUAUUACGGGGA | -0.685 ± 0.08 | 0.372 ± 0.12
70 | UUGAAGCAAUAUUACGGGUA | -0.282 ± 0.065 | -0.527 ± 0.081
71 | UUGAAGCAAUAUUACGGUAC | -2.04 ± 0.22 | -2.44 ± 0.31
72 | UUGAAGCAAUAUUACGUAAU | -3.46 ± 0.21 | -1.06 ± 0.13
73 | UUGAAGCAAUAUUACGUAUA | -1.25 ± 0.11 | -0.207 ± 0.14
74 | UUGAAGCAAUAUUACGUCGA | 0.473 ± 0.084 | 0.333 ± 0.093
75 | UUGAAGCAAUAUUACGUCGC | -3.48 ± 0.23 | -1.49 ± 0.24
76 | UUGAAGCAAUAUUACGUCUC | -3.24 ± 0.28 | -1.28 ± 0.23
77 | UUGAAGCAAUAUUACGUGAG | -0.592 ± 0.067 | -0.805 ± 0.093
78 | UUGAAGCAAUAUUACGUGCC | -2.27 ± 0.15 | -0.402 ± 0.16
79 | UUGAAGCAAUAUUACGUGCG | -0.232 ± 0.063 | -0.131 ± 0.078
